Reference: paper PMC3269792

Legend:
[1] = target: KCNQ1-KCNQ1 dimer (QQ) of the tandem EQQ construct with I145C in the proximal KCNQ1 subunit (human); test: cross-linking
[2] = target: KCNQ1-KCNQ1 dimer (QQ) of the tandem EQQ construct with I145C in the distal KCNQ1 subunit (human); test: cross-linking

Substance: KCNE1 K41C subunit of the tandem EQQ construct, cut off by HRV-3C protease (natural protein)
- percent cross-linking [1]: 90%
- percent cross-linking [2]: 50%
